Measurements: paper PMC6444013, “Development of a fluorescence-based method for the rapid determination of Zika virus polymerase activity and the screening of antiviral drugs” (Scientific Reports, 2019)

Test system: T1, Nc1ncnc2c1ncn2[C@@H]1O[C@H](COP(=O)(O)OP(=O)(O)OP(=O)(O)O)[C@@H](O)[C@H]1O
T1 construct: RdRp domain residues 275-903 of NS5, cut from the genome polyprotein; E. coli BL21(DE3)-pRIL; 75 kDa
Assay: purified protein
Assay type: biochemical, Zika virus
Details: poly-U 3 μg/mL, ATP 200–2250 μM, 2.5 mM MnCl2, pH 7.5, 30 °C

ZIKV RdRp (ZIKV NS5 RdRp domain) (Zika virus)
Km: 561 ± 38 µM
